Data set [1] concerns the molecule itself. The experiment in a line: SEC; size-exclusion chromatography after Ni2+ chelation; Bis-Tris buffer, pH 6.75; YhdE eluted at approximately 81 mL, approximately 45 kDa. On the technique in general: SEC sorts molecules by how far they enter the pores of the column.
Substrate in data set [2]: Cc1cn([C@H]2C[C@H](O)[C@@H](COP(=O)(O)OP(=O)(O)OP(=O)(O)O)O2)c(=O)[nH]c1=O
The experiment in a line: purified protein. The data set is classed as biochemical, Escherichia coli. Conditions: 2 mM Mn2+, 20 mM HEPES pH 7.0, 25 °C, 1.5 µM enzyme, apparent Km, Hill coefficient 2.2 (positive cooperativity).

Substrate in data set [3]: O=c1ccn([C@@H]2O[C@H](COP(=O)(O)OP(=O)(O)OP(=O)(O)O)[C@@H](O)[C@H]2O)c(=O)[nH]1
The experiment in a line: purified protein. The data set is classed as biochemical, Escherichia coli. Conditions: 2 mM Mn2+, 20 mM HEPES pH 7.0, 25 °C, 1.5 µM enzyme, apparent Km, Hill coefficient 1.9 (positive cooperativity).

B1: YhdE, a Maf-like protein in Escherichia coli (nucleotide pyrophosphatase) (enzyme, UniProt P25536 1-197, looked up)
chain: MTSLYLASGSPRRQELLAQLGVTFERIVTGIEEQRQPQESAQQYVVRLAREKARAGVAQTAKDLPVLGADTIVILNGEVLEKPRDAEHAAQMLRKLSGQTHQVMTAVALADSQHILDCLVVTDVTFRTLTDEDIAGYVASDEPLDKAGAYGIQGLGGCFVRKINGSYHAVVGLPLVETYELLSNFNALREKRDKHDG
notes: YhdE, Maf-like protein of Escherichia coli; the open reading frame of yhdE cloned into pFO4 (BamHI/EcoRI); also called recombinant YhdE; source: E. coli BL21(DE3), purified (Ni2+ chelation, size-exclusion chromatography)
The term stoichiometry N denotes the number of molecules, sites or subunits per partner or assembly. As to B1, in data set [1], the “stoichiometry N” value came out at 2.

B2: YhdE (Escherichia coli K-12) (protein)
chain: TSLYLASGSPRRQELLAQLGVTFERIVTGIEEQRQPQESAQQYVVRLAREKARAGVAQTAKDLPVLGADTIVILNGEVLEKPRDAEHAAQMLRKLSGQTHQVMTAVALADSQHILDCLVVTDVTFRTLTDEDIAGYVASDEPLDKAGAYGIQGLGGCFVRKINGSYHAVVGLPLVETYELLSNFNALREKRDKHDG
notes: dimer in solution ~45 kDa, monomer ~22 kDa; PDB entries are of the E33A mutant
What is called Km is the substrate concentration at which the rate is half of its maximum. A word on the Vmax: it is the top rate of the reaction or transport when substrate is in excess. As usually defined, the kcat is the number of substrate molecules converted per active site and unit of time at saturation. As a reminder, the kcat/Km is the second-order rate constant that governs catalysis at low substrate concentration. For the protein B2, in data set [2], the Km amounted to 90 µM, the Vmax is 3600 µM/min, the kcat amounted to 43 s⁻¹ and the kcat/Km was 503000 M⁻¹ s⁻¹. In data set [3], the Michaelis-Menten constant (Km) was 500 µM, the Vmax is 8400 µM/min, the turnover number (kcat) was 95 s⁻¹ and the catalytic efficiency (kcat/Km) stood at 191000 M⁻¹ s⁻¹.
